Two proteins from PMC5849714, “Direct coupling of detergent purified human mGlu5 receptor to the heterotrimeric G proteins Gq and Gs” (Scientific Reports, 2018) can be followed below.

Series [1] deals with the molecule itself. The experiment in a line: non-reducing SDS-PAGE; SNAP-Red-labelled receptor extracted from HEK293 cells with detergent, non-purified material; non-reducing conditions; fluorescence scan of the gel.
Series [2] deals with the molecule itself. As to the kind of experiment: non-reducing SDS-PAGE; purified receptor from Sf9 after SEC, Coomassie-blue stained gel; bands identified by mass spectrometry; reducing reagent raised the monomer band.

B1: SNAP-mGlu5-Δ856 (FLAG-SNAP-tagged human mGlu5 receptor truncated after A856) (receptor, UniProt P41594-2 21-856, looked up)
chain: QSSERRVVAHMPGDIIIGALFSVHHQPTVDKVHERKCGAVREQYGIQRVEAMLHTLERINSDPTLLPNITLGCEIRDSCWHSAVALEQSIEFIRDSLISSEEEEGLVRCVDGSSSSFRSKKPIVGVIGPGSSSVAIQVQNLLQLFNIPQIAYSATSMDLSDKTLFKYFMRVVPSDAQQARAMVDIVKRYNWTYVSAVHTEGNYGESGMEAFKDMSAKEGICIAHSYKIYSNAGEQSFDKLLKKLTSHLPKARVVACFCEGMTVRGLLMAMRRLGLAGEFLLLGSDGWADRYDVTDGYQREAVGGITIKLQSPDVKWFDDYYLKLRPETNHRNPWFQEFWQHRFQCRLEGFPQENSKYNKTCNSSLTLKTHHVQDSKMGFVINAIYSMAYGLHNMQMSLCPGYAGLCDAMKPIDGRKLLESLMKTNFTGVSGDTILFDENGDSPGRYEIMNFKEMGKDYFDYINVGSWDNGELKMDDDEVWSKKSNIIRSVCSEPCEKGQIKVIRKGEVSCCWTCTPCKENEYVFDEYTCKACQLGSWPTDDLTGCDLIPVQYLRWGDPEPIAAVVFACLGLLATLFVTVVFIIYRDTPVVKSSSRELCYIILAGICLGYLCTFCLIAKPKQIYCYLQRIGIGLSPAMSYSALVTKTNRIARILAGSKKKICTKKPRFMSACAQLVIAFILICIQLGIIVALFIMEPPDIMHDYPSIREVYLICNTTNLGVVTPLGYNGLLILSCTFYAFKTRNVPANFNEAKYIAFTMYTTCIIWLAFVPIYFGSNYKIITMCFSVSLSATVALGCMFVPKVYIILAKPERNVRSAFTTSTVVRMHVGDGKSSSAA
modifications: SNAP tag labelled with a cell-impermeant red fluorophore (SNAP-Red)
notes: metabotropic glutamate receptor 5 (mGlu5), human, truncated after A856 by a stop codon; Construct from Cisbio Bioassays; the SNAP tag is extracellular; also called SNAP-Tag C-terminal mGlu5-Δ856 receptor; hmGlu5-ΔCter-A856; source: HEK293, transiently transfected; extracted with MNG3/CHS, not purified; on cells in the cAMP assay
What is called stoichiometry N is the number of molecules, sites or subunits per partner or assembly. B1: the “stoichiometry N” value in series [1] came to 2.

B2: mGlu5-Δ856-eGFP (receptor, human, UniProt P41594-2 21-856, looked up)
chain: QSSERRVVAHMPGDIIIGALFSVHHQPTVDKVHERKCGAVREQYGIQRVEAMLHTLERINSDPTLLPNITLGCEIRDSCWHSAVALEQSIEFIRDSLISSEEEEGLVRCVDGSSSSFRSKKPIVGVIGPGSSSVAIQVQNLLQLFNIPQIAYSATSMDLSDKTLFKYFMRVVPSDAQQARAMVDIVKRYNWTYVSAVHTEGNYGESGMEAFKDMSAKEGICIAHSYKIYSNAGEQSFDKLLKKLTSHLPKARVVACFCEGMTVRGLLMAMRRLGLAGEFLLLGSDGWADRYDVTDGYQREAVGGITIKLQSPDVKWFDDYYLKLRPETNHRNPWFQEFWQHRFQCRLEGFPQENSKYNKTCNSSLTLKTHHVQDSKMGFVINAIYSMAYGLHNMQMSLCPGYAGLCDAMKPIDGRKLLESLMKTAFTGVSGDTILFDENGDSPGRYEIMNFKEMGKDYFDYINVGSWDNGELKMDDDEVWSKKSNIIRSVCSEPCEKGQIKVIRKGEVSCCWTCTPCKENEYVFDEYTCKACQLGSWPTDDLTGCDLIPVQYLRWGDPEPIAAVVFACLGLLATLFVTVVFIIYRDTPVVKSSSRELCYIILAGICLGYLCTFCLIAKPKQIYCYLQRIGIGLSPAMSYSALVTKTNRIARILAGSKKKICTKKPRFMSACAQLVIAFILICIQLGIIVALFIMEPPDIMHDYPSIREVYLICNTTNLGVVTPLGYNGLLILSCTFYAFKTRNVPANFNEAKYIAFTMYTTCIIWLAFVPIYFGSNYKIITMCFSVSLSATVALGCMFVPKVYIILAKPERNVRSAFTTSTVVRMHVGDGKSSSAA
notes: metabotropic glutamate receptor 5 (mGlu5), human, truncated after A856; GP64 signal peptide (AcNPV) at the N-terminus; TEV protease site between receptor and eGFP, then 10x His; Theoretical MW printed: monomer 124,784 Da; also called mGlu5-eGFP; not shown: eGFP, C-terminal, kept
B2: the “stoichiometry N” value in series [2] worked out at 2.
